Test results taken from patent publication US20050054043A1 (UNIVERSITY OF VERMONT, published 2005).

How the values were obtained:
[1] = molecular target: T1, transferrin receptor on HeLa S3 cells (human, UniProt P02786 1-760); experiment: direct equilibrium binding of radioiodinated diferric transferrin to HeLa S3 cells, LIGAND fit (apparent Kd')
T1 construct: whole, on cells; also called human receptors; cell-surface transferrin receptors
Procedure: After 30 min of incubation at 37° C. with gentle shaking, portions of the cell suspension (3×100 μL) were pipetted into microfuge tubes containing 0.9 mL of ice-cold JMEM-BSA over 300 μL of dibutyl phthalate and centrifuged for 2 min in a Beckman microfuge. The aqueous and organic phases were aspirated to just above the cell pellet. The bottom of the tube containing the cell pellet was released by a hot wire into a plastic tube (12×75 mm) and assayed for radioactivity.

[2] = molecular target: T1, transferrin receptor on HeLa S3 cells; experiment: competition of unlabeled transferrin against radioiodinated Boehringer Mannheim hTf on HeLa S3 cells, LIGAND fit (apparent Kd')
Procedure: Cells were routinely grown in DMEM-F-12 containing 10% newborn calf serum. Prior to beginning a binding experiment, the cells were harvested with Versene, and taken up in Joklik's minimum essential medium-20 mM Hepes-2% BSA (JMEM-BSA). Endogenous bovine transferrin was removed from the HeLa cells by incubation for 10 min at 37° C. at a 5-fold dilution with JMEM-BSA. After centrifugation of the cells and removal of the supernatant, this procedure was repeated twice. […] After 30 min of incubation at 37° C. with gentle shaking, portions of the cell suspension (3×100 μL) were pipetted into microfuge tubes containing 0.9 mL of ice-cold JMEM-BSA over 300 μL of dibutyl phthalate and centrifuged for 2 min in a Beckman microfuge. The aqueous and organic phases were aspirated to just above the cell pellet. The bottom of the tube containing the cell pellet was released by a hot wire into a plastic tube (12×75 mm) and assayed for radioactivity.

T1 sequence (P02786 whole entry): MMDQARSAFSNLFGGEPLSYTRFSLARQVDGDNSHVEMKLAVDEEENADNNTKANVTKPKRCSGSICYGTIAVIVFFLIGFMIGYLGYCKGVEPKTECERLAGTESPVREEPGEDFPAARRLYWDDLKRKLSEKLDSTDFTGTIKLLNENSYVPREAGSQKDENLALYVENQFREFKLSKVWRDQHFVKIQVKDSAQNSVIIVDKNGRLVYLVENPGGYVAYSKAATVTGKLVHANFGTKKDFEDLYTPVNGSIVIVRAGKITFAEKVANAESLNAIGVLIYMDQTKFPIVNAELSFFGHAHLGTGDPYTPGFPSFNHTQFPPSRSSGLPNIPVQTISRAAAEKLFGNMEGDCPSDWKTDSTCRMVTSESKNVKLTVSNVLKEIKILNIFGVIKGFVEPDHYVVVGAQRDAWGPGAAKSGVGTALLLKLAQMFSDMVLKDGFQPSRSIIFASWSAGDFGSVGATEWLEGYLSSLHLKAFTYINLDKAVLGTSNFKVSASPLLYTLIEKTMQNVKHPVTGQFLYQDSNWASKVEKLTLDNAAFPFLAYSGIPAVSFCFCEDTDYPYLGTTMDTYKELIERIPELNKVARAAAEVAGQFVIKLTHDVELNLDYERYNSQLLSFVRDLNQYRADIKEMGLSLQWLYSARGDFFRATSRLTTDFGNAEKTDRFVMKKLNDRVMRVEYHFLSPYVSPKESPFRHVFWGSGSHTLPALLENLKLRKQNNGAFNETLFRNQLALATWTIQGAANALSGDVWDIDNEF

Kd [1]: 23.4 nM | Kd [2]: 19.8 nM
B1: hTf N413D/N611D mutant (recombinant nonglycosylated human serum transferrin), diferric (ligand)
chain: VPDKTVRWCAVSEHEATKCQSFRDHMKSVIPSDGPSVACVKKASYLDCIRAIAANEADAVTLDAGLVYDAYLAPNNLKPVVAEFYGSKEDPQTFYYAVAVVKKDSGFQMNQLRGKKSCHTGLGRSAGWNIPIGLLYCDLPEPRKPLEKAVANFFSGSCAPCADGTDFPQLCQLCPGCGCSTLNQYFGYSGAFKCLKDGAGDVAFVKHSTIFENLANKADRDQYELLCLDNTRKPVDEYKDCHLAQVPSHTVVARSMGGKEDLIWELLNQAQEHFGKDKSKEFQLFSSPHGKDLLFKDSAHGFLKVPPRMDAKMYLGYEYVTAIRNLREGTCPEAPTDECKPVKWCALSHHERLKCDEWSVNSVGKIECVSAETTEDCIAKIMNGEADAMSLDGGFVYIAGKCGLVPVLAENYDKSDNCEDTPEAGYFAVAVVKKSASDLTWDNLKGKKSCHTAVGRTAGWNIPMGLLYNKINHCRFDEFFSEGCAPGSKKDSSLCKLCMGSGLNLCEPNNKEGYYGYTGAFRCLVEKGDVAFVKHQTVPQNTGGKNPDPWAKNLNEKDYELLCLDGTRKPVEEYANCHLARAPNHAVVTRKDKEACVHKILRQQQHLFGSDVTDCSGNFCLFRSETKDLLFRDDTVCLAKLHDRNTYEKYLGEEYVKAVGNLRKCSTSSLLEACTFRRP
modifications: non-glycosylated; diferric (iron-saturated); radioiodinated in Table 2 (A), unlabeled in (B)
notes: Full-length human transferrin with both N-glycosylation sites changed to Asp, expressed in BHK cells; Positions use mature-protein numbering; also called hTf(N/D)
